Tests used:
activated Factor IX = experiment: direct ELISA, FIXa coated at 5 ug/ml, positive control antibody specific for the antigen, concentration not given
activated Factor X = experiment: direct ELISA, FXa coated at 10 ug/ml, positive control antibody specific for the antigen, concentration not given
dog Protein C (zymogen) [1] = target: T1, dog Protein C (zymogen) (dog, UniProt Q28278 43-456); experiment: direct ELISA, dPC coated at 10 ug/ml, positive control antibody specific for the antigen, concentration not given
T1 construct: mature; also called dog PC
T1 sequence (looked up): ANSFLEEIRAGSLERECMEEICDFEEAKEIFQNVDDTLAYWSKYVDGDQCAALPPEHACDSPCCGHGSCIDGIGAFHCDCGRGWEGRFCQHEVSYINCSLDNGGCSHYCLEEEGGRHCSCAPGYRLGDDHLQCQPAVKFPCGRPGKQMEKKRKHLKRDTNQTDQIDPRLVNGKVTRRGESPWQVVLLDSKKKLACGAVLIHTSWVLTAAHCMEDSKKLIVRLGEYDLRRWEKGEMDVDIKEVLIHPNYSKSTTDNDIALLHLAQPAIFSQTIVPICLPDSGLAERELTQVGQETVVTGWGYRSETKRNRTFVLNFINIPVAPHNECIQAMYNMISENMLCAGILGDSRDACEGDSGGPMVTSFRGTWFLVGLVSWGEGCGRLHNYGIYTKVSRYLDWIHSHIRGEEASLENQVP

[2] = target: T2, human activated Protein C (human, UniProt P04070 43-461); experiment: direct ELISA, hAPC coated at 1 ug/ml, positive control antibody specific for the antigen, concentration not given
[3] = target: T3, mouse Protein C (zymogen) (mouse, UniProt P33587 42-460); experiment: direct ELISA, mPC coated at 10 ug/ml, positive control antibody specific for the antigen, concentration not given
T3 construct: mature; also called mouse PC
T3 sequence (looked up): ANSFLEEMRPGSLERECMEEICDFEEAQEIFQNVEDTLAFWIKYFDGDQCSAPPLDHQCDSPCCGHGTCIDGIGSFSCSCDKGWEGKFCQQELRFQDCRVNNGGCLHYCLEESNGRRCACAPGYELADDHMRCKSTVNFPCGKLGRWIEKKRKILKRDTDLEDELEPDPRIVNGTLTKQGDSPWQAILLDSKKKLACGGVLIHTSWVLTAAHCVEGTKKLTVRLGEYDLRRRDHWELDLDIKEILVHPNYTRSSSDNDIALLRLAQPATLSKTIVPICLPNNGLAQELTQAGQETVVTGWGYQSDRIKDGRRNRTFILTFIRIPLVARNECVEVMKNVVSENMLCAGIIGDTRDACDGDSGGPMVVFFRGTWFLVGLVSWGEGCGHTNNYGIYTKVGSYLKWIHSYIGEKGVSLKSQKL

[4] = target: activated Factor II (thrombin) (Homo sapiens (Human)) (UniProt P00734); experiment: direct ELISA, FIIa coated at 10 ug/ml, positive control antibody specific for the antigen, concentration not given
activated Factor VII = experiment: direct ELISA, FVIIa coated at 10 ug/ml, positive control antibody specific for the antigen, concentration not given
activated Factor VII, sequence (P08709 61-212, chain 1 of 2): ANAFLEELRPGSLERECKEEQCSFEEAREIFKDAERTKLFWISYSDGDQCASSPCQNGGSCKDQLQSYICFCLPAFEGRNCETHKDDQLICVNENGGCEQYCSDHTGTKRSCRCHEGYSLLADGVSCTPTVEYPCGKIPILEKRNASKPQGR
activated Factor VII, sequence (P08709 213-466, chain 2 of 2): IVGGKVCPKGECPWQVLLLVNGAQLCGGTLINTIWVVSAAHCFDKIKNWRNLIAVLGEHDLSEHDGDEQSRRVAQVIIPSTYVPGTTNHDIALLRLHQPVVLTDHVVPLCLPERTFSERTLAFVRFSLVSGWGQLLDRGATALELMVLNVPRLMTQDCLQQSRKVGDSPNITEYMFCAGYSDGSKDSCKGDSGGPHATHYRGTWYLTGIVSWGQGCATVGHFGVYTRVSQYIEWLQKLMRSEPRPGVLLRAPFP

[5] = target: T2, human activated Protein C; experiment: cell-based or functional assay
[6] = target: T2, human activated Protein C; experiment: ELISA titration, IgG against Fab
[7] = target: T2, human activated Protein C; experiment: direct ELISA, aPC coated, hIgG1
dog activated Protein C [8] = target: T4, dog activated Protein C (dog, UniProt Q28278 43-456); experiment: direct ELISA, antigen coated at 1 ug/ml, IgG at 20 nM, anti-human IgG-HRP, AmplexRed (RFU)
T4 construct: mature; also called dog aPC; dAPC
T4 sequence (looked up): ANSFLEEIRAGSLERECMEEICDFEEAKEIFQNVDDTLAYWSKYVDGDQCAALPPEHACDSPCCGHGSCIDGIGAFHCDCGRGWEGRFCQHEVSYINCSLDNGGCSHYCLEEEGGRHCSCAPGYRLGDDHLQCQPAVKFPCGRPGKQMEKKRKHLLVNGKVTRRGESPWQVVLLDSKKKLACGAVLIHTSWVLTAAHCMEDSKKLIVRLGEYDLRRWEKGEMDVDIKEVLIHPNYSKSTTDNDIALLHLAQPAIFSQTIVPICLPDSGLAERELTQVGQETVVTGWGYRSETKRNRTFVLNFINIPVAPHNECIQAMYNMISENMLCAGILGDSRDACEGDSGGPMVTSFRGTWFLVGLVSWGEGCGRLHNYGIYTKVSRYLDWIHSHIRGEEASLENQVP

[9] = target: T2, human activated Protein C; experiment: ELISA titration
[10] = target: T2, human activated Protein C; experiment: Biacore, Fab
[11] = target: T2, human activated Protein C; experiment: direct ELISA, antigen coated, Fab
dog Protein C (zymogen) [12] = target: T1, dog Protein C (zymogen); experiment: direct ELISA, dPC coated at 10 ug/ml, Fab at 20 nM, anti-human Fab-HRP, AmplexRed (RFU)
Experimental: (§1) To determine the binding selectivity of these fabs, their binding activities to the proenzyme human PC, to thrombin (FIIa), and to the activated Factor II (FIIa, thrombin), Factor VII (FVIIa), Factor IX (FIXa), and Factor X (FXa) were also assessed by ELISA. Briefly, an ELISA plate was coated with human aPC at 1 ug/ml, mouse PC at 10 ug/ml, dog PC at 10 ug/ml, other coagulation factors (FIIa, FVIIa, FIXa, FXa) at 5-10 ug/ml. Anti-aPC Fabs were added to the wells at 20 nM (1 ug/ml). Bound Fabs were detected by the secondary antibody (anti-human Fab-HRP) followed by HRP substrate AmplexRed.

[13] = target: T3, mouse Protein C (zymogen); experiment: direct ELISA, mPC coated at 10 ug/ml, Fab at 20 nM, anti-human Fab-HRP, AmplexRed (RFU)
Experimental: as §1

[14] = target: T5, human Protein C (zymogen) (human, UniProt P04070 43-461); experiment: direct ELISA, antigen coated at 100 ng/well, Fab at 20 nM (1 ug/ml), anti-human Fab-HRP, AmplexRed (RFU)
T5 construct: also called human PC; hPC
Experimental: (§2) FIG. 3 depicts a graph characterizing anti-APC Fabs by direct ELISA. An ELISA plate was coated with human PC (hPC), human aPC (hAPC), dog aPC (dAPC), mouse aPC (mAPC) at 100 ng per well. Purified Fabs designate on the X-axis were added to the plate at 20 nM (1 ug/ml). Bound Fab was detected by the secondary antibody (anti-human Fab-HRP) followed by HRP substrate AmplexRed. The purified Fabs preferentially bind to human aPC and, with the exception of Fab R41C17, show little to no binding to human PC.
(§3) Antigens were coated directly on ELISA plates. Coating antigens included human PC (plasma-derived), human aPC (recombinant), dog aPC (plasma-derived), and mouse aPC (recombinant) at 100 ng/well in PBS/Ca buffer. After blocking the plate with 5% milk/PBS and washing the plate with PBS-Tween20, soluble Fabs (1 ug/ml, 20 nM) were added to the plate and incubated for 1 h at RT with shaking. Fab binding was detected with anti-human Fab (lambda) antibody-HRP and Amplex red as substrate. […] In contrast, R41C17 binds to both human APC and human PC. Also shown in FIG. 3 is cross-species reactivity of Fabs by ELISA.

dog activated Protein C [15] = target: T4, dog activated Protein C; experiment: as above
Experimental: as §2, §3

[16] = target: rabbit activated Protein C (rabbit) (UniProt Q28661); experiment: ELISA, hIgG1
[17] = target: mouse activated Protein C (mouse) (UniProt P33587); experiment: direct ELISA, hIgG1
[18] = target: rabbit activated Protein C (rabbit) (UniProt Q28661); experiment: cell-based or functional assay
[19] = target: T2, human activated Protein C; experiment: ELISA, hIgG1
dog activated Protein C [20] = target: T4, dog activated Protein C; experiment: ELISA, hIgG1
[21] = target: mouse activated Protein C (mouse) (UniProt P33587); experiment: direct ELISA, aPC coated, hIgG1
[22] = target: rabbit activated Protein C (rabbit) (UniProt Q28661); experiment: direct ELISA, aPC coated, hIgG1
[23] = target: T2, human activated Protein C; experiment: cell-based or functional assay; remark: listed apart in the source
dog activated Protein C [24] = target: T4, dog activated Protein C; experiment: cell-based or functional assay
dog Protein C (zymogen) [25] = target: T1, dog Protein C (zymogen); experiment: direct ELISA, antigen coated
dog activated Protein C [26] = target: T4, dog activated Protein C; experiment: direct ELISA, aPC coated, hIgG1
[27] = target: T2, human activated Protein C; experiment: cell-based or functional assay; remark: listed apart in the source
dog activated Protein C [28] = target: T4, dog activated Protein C; experiment: Biacore, Fab
dog activated Protein C [29] = target: T4, dog activated Protein C; experiment: direct ELISA, antigen coated, Fab
dog activated Protein C [30] = target: T4, dog activated Protein C; experiment: ELISA and Biacore, as the sentence says

activated Factor X, sequence (P00742 41-179, chain 1 of 2): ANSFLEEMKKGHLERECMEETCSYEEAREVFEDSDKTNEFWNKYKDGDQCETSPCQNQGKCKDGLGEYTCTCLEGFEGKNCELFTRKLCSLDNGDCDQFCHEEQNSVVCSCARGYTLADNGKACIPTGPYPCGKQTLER
activated Factor X, sequence (P00742 235-488, chain 2 of 2): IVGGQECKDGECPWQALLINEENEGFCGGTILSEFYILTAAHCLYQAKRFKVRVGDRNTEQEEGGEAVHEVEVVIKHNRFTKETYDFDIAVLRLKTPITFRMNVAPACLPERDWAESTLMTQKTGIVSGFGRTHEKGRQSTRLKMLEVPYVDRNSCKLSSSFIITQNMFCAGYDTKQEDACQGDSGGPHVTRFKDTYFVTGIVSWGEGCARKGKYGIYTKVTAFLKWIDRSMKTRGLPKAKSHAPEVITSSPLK

Molecule: control Ab (specific for each antigen) (antibody)
- RFU (activated Factor IX): 7370 RFU
- RFU (activated Factor X): 6460 RFU
- RFU (dog Protein C (zymogen) [1]): 476 RFU
- RFU [2]: 11700 RFU
- RFU [3]: 331 RFU
- RFU [4]: 6050 RFU
- RFU (activated Factor VII): 10300 RFU

B1: R41E3 hIgG1 (antibody, V domains shown)
VH: EVQLLESGGGLVQPGGSLRLSCAASGFTFNNYAMTWVRQAPGKGLEWVSGVSWNGSRTHYADSVKGRFTISRDNSKNTLYLQMNSLRAEDTAVYYCARADSSSAGRWAGSLDYWGQGTLVTVTS
VL: LTQPPSASGTPGQRVTISCSGSSSNIGNNAVNWYQQLPGTAPKLLIYSNNQRPSGVPDRFSGSKSGTSASLAISGLRSEDEADYYCSSYTSSSTHVVFGGGTKLTVLG
notes: also called R41E3-IgG
- aPTT, inhibition of aPC activity at 163-fold molar excess [5]: ~80%
- fold increase of binding affinity against the corresponding Fab [6]: ~50 fold
- EC50 [7]: 1.76 nM
- binding result (dog activated Protein C [8]): no binding (tested: 20 nM)

B2: R41E3 Fab (Fab, V domains shown)
VH: EVQLLESGGGLVQPGGSLRLSCAASGFTFNNYAMTWVRQAPGKGLEWVSGVSWNGSRTHYADSVKGRFTISRDNSKNTLYLQMNSLRAEDTAVYYCARADSSSAGRWAGSLDYWGQGTLVTVTS
VL: LTQPPSASGTPGQRVTISCSGSSSNIGNNAVNWYQQLPGTAPKLLIYSNNQRPSGVPDRFSGSKSGTSASLAISGLRSEDEADYYCSSYTSSSTHVVFGGGTKLTVLG
notes: Human Fab (lambda), expressed in E. coli
- EC50 [9]: 104 nM
- Kd [10]: 11 nM
- EC50 [11]: 10.4 nM
- binding result (dog Protein C (zymogen) [12]): no binding (tested: 20 nM)
- binding result [13]: no binding (tested: 20 nM)
- binding result [14]: no binding (tested: 20 nM)
- binding result (dog activated Protein C [15]): no binding (tested: 20 nM)

B3: T46J23-hIgG1 (antibody, V domains shown)
VH: EVQLLESGGGLVQPGGSLRLSCAASGFTFGNHWMTWVRQAPGKGLEWVSGVSWNGSRTHYADSVKGRFTISRDNSKNTLYLQMNSLRAEDTAVYYCALTGRSGWMRFPNWFDPWGQGTLVTVTS
VL: LTQPPSASGTPGQRVTISCTGTSSNIGAGYDVHWYQQLPGTAPKLLIYDNNNRPSGVPDRFSGSKSGTSASLAISGLRSEDEADYYCAAWDDSLNGVVFGGGTKLTVLG
notes: also called T46J23-IgG
- EC50 [16]: 1.7 nM
- EC50 [17]: 6 nM
- Anti-aPC IC50 (nM), Amidolytic activity [18]: 17 nM
- EC50 [19]: 2.2 nM
- EC50 (dog activated Protein C [20]): 1.7 nM
- aPTT, inhibition of aPC activity at 1 ug/ml IgG (1:1 molar ratio) [5]: ~50%
- EC50 [21]: 4.6 nM
- EC50 [22]: 7 nM
- Anti-aPC IC50 (nM), Amidolytic activity [23]: 18 nM
- Anti-aPC IC50 (nM), Amidolytic activity (dog activated Protein C [24]): 625 nM
- binding result (dog Protein C (zymogen) [25]): no binding
- EC50 [7]: 2.18 nM
- EC50 (dog activated Protein C [26]): 1.68 nM
- IC50 (read off the curve), amidolytic activity of human aPC [b] [27]: ~8 nM

B4: T46J23 Fab (Fab, V domains shown)
VH: EVQLLESGGGLVQPGGSLRLSCAASGFTFGNHWMTWVRQAPGKGLEWVSGVSWNGSRTHYADSVKGRFTISRDNSKNTLYLQMNSLRAEDTAVYYCALTGRSGWMRFPNWFDPWGQGTLVTVTS
VL: LTQPPSASGTPGQRVTISCTGTSSNIGAGYDVHWYQQLPGTAPKLLIYDNNNRPSGVPDRFSGSKSGTSASLAISGLRSEDEADYYCAAWDDSLNGVVFGGGTKLTVLG
notes: as for B2
- Kd [10]: 4.1 nM
- Kd (dog activated Protein C [28]): 21 nM
- EC50 [11]: 6.7 nM
- EC50 (dog activated Protein C [29]): 16.6 nM
- Kd (dog activated Protein C [30]): 22 nM
- binding result (dog Protein C (zymogen) [12]): no binding (tested: 20 nM)
